Experiment [1] deals with T1, ICAM1, endogenous in H929 multiple myeloma cells (human, UniProt P05362 28-532).
T1 construct: Native protein on H929 cells (flow cytometry, siRNA knockdown) and in H929 lysates (IP/MS); also called CD54
The experiment in a line: flow cytometry, IgG1 on H929 cells. Here is the method:
Staining protocol. Cells were harvested (5×10⁴ cells per sample), washed once with phosphate-buffered saline (PBS) at RT, and a second time with ice-cold FACS buffer (PBS, 0.5% BSA, 2 mM EDTA, 0.1% NaN₃). Cells were stained in 50 μL of primary antibody for 30 min on ice, washed twice with 100 μL FACS buffer, stained with 50 μL of diluted secondary antibody, washed two more times in FACS, and then resuspended in 50 μL FACS buffer. Samples were acquired on an Accuri C6 Plus or a BD FACSCanto II flow cytometer (both from BD Biosciences). Data were analyzed using FlowJo version 10 software. Primary antibodies: Fab (10 μg/mL), IgG1 (0.1 to 50 μg/mL), or 25 μL polyclonal Fabs from periplasmic extracts. Polyclonal Fabs were produced by diluting bacterial stocks by a factor of 100 in autoinduction media and incubating overnight to induce expression as previously described. […] Viability stains: DAPI (Cell Signaling Technology) or SYTOX AADvanced Dead Cell Stain (Thermo Fisher Scientific). Labeling: The panel of chimeric rabbit/human IgG1s was labeled using the Alexa Fluor 647 Labeling Kit (Thermo Fisher Scientific, #A20173) to facilitate single-step staining. Competition: Unlabeled IgG1s were added at saturating concentrations of 60 μg/mL to block the target receptors, incubating on ice for 30 min, followed by the addition of an equal volume of the Alexa Fluor 647 labeled antibody at 2 μg/mL, and the mixture was incubated on ice for another 30 min.

For experiment [2], the target named is T2, GARS, endogenous in H929 multiple myeloma cells (human, UniProt P41250 37-739, limits assumed).
T2 construct: Native protein pulled down from H929 lysates; also called Glycyl-tRNA synthetase; GlyRS
T2 sequence: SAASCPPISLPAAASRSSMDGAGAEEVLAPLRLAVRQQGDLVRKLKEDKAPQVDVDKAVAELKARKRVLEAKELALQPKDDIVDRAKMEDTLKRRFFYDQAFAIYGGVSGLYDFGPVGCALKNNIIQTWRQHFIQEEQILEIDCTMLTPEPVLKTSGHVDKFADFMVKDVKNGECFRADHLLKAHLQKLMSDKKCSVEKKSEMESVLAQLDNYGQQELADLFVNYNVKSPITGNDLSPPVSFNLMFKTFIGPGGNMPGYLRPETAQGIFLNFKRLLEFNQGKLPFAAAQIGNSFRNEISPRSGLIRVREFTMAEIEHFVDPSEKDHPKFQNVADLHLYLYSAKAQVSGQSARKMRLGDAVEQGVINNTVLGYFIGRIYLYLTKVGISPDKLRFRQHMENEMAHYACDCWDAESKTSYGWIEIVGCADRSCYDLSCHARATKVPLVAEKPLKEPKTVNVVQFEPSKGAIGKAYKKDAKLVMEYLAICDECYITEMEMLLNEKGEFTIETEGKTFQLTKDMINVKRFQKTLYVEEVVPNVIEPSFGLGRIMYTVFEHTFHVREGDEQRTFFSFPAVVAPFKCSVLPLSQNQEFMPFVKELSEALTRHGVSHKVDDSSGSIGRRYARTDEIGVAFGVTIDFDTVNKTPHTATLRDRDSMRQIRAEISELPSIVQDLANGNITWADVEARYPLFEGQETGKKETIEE
The experiment can be described thus: IP from H929 cell lysate, LC-MS/MS. Here is the method: (§1) Immunoprecipitation. […] After 30 min of rocking at 4° C., and lysates were centrifuged at 18,400×g for 20 min at 4° C. Subsequently, 1-mL aliquots of the supernatants were pre-cleared twice with Protein G agarose (Thermo Fisher Scientific) by adding 50 μL of 50% resin slurry and incubating 30 min with end-over-end tumbling at 4° C., followed by centrifugation at 16,000×g for 5 min and pooling of the pre-cleared cell lysate aliquots. Representative mAbs from each cluster were immobilized on Protein G agarose at a ratio of 25 μg IgG1 per 30 μL of 50% slurry, diluted to 500 μL with Dulbecco's PBS (DPBS) and incubated for 1 h at 4° C. with tumbling, followed by centrifugation at 5,000×g for 30 s and 2 washes with lysis buffer. After the last wash, the ˜15 μL of IgG1-coated resin was blocked with 10 μL of 10% BSA (MilliporeSigma). Next, 1 mL of the pooled pre-cleared cell lysate was added to the IgG1-coated resin and incubated for 3 h at 4° C. with tumbling. […] Finally, 16 μL of the eluate (˜20%) was analyzed on a reducing SDS-PAGE gel stained with SYPRO Ruby dye (Bio-Rad Laboratories), while the rest was stored at −80° C. prior to LC-MS/MS analysis. […]

Experiment [3] addresses T2, GARS, endogenous in H929 multiple …. The experiment can be described thus: IP from H929 cell lysate, LC-MS/MS, spectral counts. Here is the method: as §1
Experiment [4] deals with T3, CADM1, endogenous in H929 multiple myeloma cells (human, UniProt Q9BY67 45-442).
T3 construct: Native protein on H929 cells (flow cytometry, siRNA knockdown) and in H929 lysates (IP/MS); RPMI-8226 cells were used for sorting with HW-97; also called IGSF4A
T3 sequence: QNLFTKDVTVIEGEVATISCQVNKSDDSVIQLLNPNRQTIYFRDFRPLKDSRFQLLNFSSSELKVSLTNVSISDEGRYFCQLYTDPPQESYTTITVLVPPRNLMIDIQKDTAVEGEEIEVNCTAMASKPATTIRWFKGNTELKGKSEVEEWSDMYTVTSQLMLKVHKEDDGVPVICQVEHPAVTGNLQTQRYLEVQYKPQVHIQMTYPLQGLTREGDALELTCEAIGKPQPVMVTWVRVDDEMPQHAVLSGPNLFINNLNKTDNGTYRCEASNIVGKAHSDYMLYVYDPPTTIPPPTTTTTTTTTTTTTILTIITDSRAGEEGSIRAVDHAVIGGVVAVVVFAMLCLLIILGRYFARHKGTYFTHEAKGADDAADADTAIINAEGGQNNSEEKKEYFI
The experiment in a line: flow cytometry, H929 + PTPRG siRNA; None 2.13.

The source of these data is patent US20260049134A1 (UNIVERSITY OF FLORIDA RESEARCH FOUNDATION, published 2026).

Numbering of substitutions follows the chain as printed. Names and notes keep the numbering of the source.

T1 sequence (P05362 28-532 limits assumed): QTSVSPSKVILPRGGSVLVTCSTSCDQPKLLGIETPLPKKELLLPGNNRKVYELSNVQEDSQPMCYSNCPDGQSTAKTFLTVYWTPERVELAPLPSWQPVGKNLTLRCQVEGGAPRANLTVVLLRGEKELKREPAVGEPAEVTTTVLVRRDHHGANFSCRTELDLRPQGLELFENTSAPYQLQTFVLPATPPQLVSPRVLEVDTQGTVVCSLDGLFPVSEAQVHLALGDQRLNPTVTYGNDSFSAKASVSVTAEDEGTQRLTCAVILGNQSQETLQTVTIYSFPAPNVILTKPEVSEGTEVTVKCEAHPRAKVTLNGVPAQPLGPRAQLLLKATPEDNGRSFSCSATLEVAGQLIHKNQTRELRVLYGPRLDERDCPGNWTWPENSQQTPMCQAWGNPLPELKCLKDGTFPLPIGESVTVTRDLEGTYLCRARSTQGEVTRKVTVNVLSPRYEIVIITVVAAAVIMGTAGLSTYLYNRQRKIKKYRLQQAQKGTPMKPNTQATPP

B1: TH9-0022 (antibody, human IgG1, kappa, L234A L235A, V domains shown)
VH: QSLEESGGRLVTPGTPLTLTCTVSGFSLSSYAMNWVRQAPGKGLEWIGIINSYGSTYYASWAKGRFTISKTSTTVDLKITSPTTEDTATYFCARVTYDSYGYGYAPYGMDLWGPGTLVTVSS
VL: LVMTQTPSSTSNAVGGTVTIKCQASQSIGNVLAWYQQKPGQPPKLLIYAASTLASGVPSRVGGSRSGTEYTLTISGVQREDAATYYCLGSDSDSDIAFGGGTELEILR
notes: also called TH9-022; negative control IgG1
With B1, the “antibody-bound positive cells (%)” value in experiment [1] was found to be 2.7%. Further, the binding result in experiment [2] was “no binding”.

B2: HW-1 chimeric rabbit-human IgG1 LA/LA/PG (antibody, V domains shown)
VH: QSLEESGGGLFKPTDTLTLTCTASGFSLGSSYAISWVRQAPGKELEWIGTIDSGRAYYARWAKSRSTITRNTNENTVTLKMTSLTAADTATYFCARDLIPTYSQDIWGPGTLVTISS
VL: SFVLTQPASVQVNLGQTVSLTCTADTLSRRYASWYQQKPGQAPVLLIYRDTSRPSGVPDRFSGSSSGNTATLTISGAQAGDEADYYCATSDGSGNSYQYVFGGGTQLTVTS
notes: Fc-silenced (L234A/L235A/P329G) IgG1, lambda; Alexa Fluor 647-labeled in single-step flow cytometry; Prototype of cluster C-1
As for B2, in experiment [2], the binding result is listed as “no binding”.

B3: HW-113 chimeric rabbit-human IgG1 LA/LA/PG (antibody, V domains shown)
VH: QKQLVESGGGLVQPGGSLTLTCTVSGFSLNKYYMGWFRQAPGKGLEWIGVISRSGDTYYSSWAKGRFTISKASTTVDLRITSPTTEDTATYFCARDASSPGFHGDRLDLWGQGTLVTVSS
VL: B2 VL with R30S, S93I, N95S, S96N, Q98L, Y99W, S111G
notes: Fc-silenced (L234A/L235A/P329G) IgG1, lambda; Alexa Fluor 647-labeled in single-step flow cytometry
For the molecule B3, in experiment [1], the “antibody-bound positive cells (%)” value was 95.8%. Also, in experiment [3], the binding result is listed as “no binding”.

B4: HW-97 chimeric rabbit-human IgG1 LA/LA/PG (antibody, V domains shown)
VH: QKQLVESGGRLVTPGTPLTLTCTVTGIDLSSHGMSWVRQAPGKGLEWIGVIYPSGSTWYASWARGRFTISKTSTTVDLKMTSLTTEDTATHFCARGDVGGADNNIWGPGTLVTVSS
VL: B2 VL with N13D, D25E, R30S, N95S, S111G
notes: Fc-silenced (L234A/L235A/P329G) IgG1, lambda; Alexa Fluor 647-labeled in single-step flow cytometry; Prototype of cluster C-97
For B4, the “Cells stained (%)” value in experiment [4] was determined as 94.8%.

B5: HW-101 chimeric rabbit-human IgG1 LA/LA/PG (antibody, V domains shown)
VH: QEQLVESGGRLVTPGTPLTLTCKASGFSLGKYDMSWVRQAPGKGLEWIGTIYAGSGSTWYASWAKGRFTISKTSTTVDLKMTSLTTEDTATYFCARDFLGVNSIWGPGTLVTISS
VL: B2 VL with R30S, G40D, Y48H, S65N, N95S, S96N, Y97F, Q98H, Y99F, S111G
notes: Fc-silenced (L234A/L235A/P329G) IgG1, lambda; Alexa Fluor 647-labeled in single-step flow cytometry; Cluster C-97
On to B5, for which the “Cells stained (%)” value in experiment [4] turned out to be 85.3%. Also, in experiment [3], the binding result was “no binding”.
